From patent publication US20070134248A1 (GENITOPE, published 2007) come the findings set out here.

The target in assay [1] is T1, PIN574 fully human Id protein (HV4-39 / LV1-40) (human).
T1 construct: patient tumour-derived idiotype immunoglobulin used as antigen; fully human form; also called Immunogen (for 20H5); not shown: human immunoglobulin heavy chain constant region, isotype G3 (HCG3); human lambda light chain constant region (LC)
The assay is described as follows: SPR (BIACORE 2000), mAb captured on anti-mouse surface, fully human Id protein as analyte, 25 C, single site model. On the procedure:
(§1) Binding constants were also determined for three of the sequenced clones (3C9, 10H7, and 20H5), as well as for two additional clones (6C9 and 15E1). The association and disassociation rates were measured by surface plasmon resonance using a BIACORE 2000 machine.
(§2) In addition, based on ELISA results, PIN185 was used as a positive control Id protein for 10H7 and 15E1 and a negative control Id protein for 3C9 and 6C9 and PIN149 was used as a non-binding Id protein for 20H5. Each mAb was captured onto an anti-mouse surface and tested for binding to the fully human Id protein. Following the mAb capture phase of the assay for the (@2 ug/ml), the fully human Id proteins were all diluted to a starting concentration of 250 nM and tested in a three fold dilution series. Each concentration was tested in duplicate. The running buffer contained PBS plus 0.005% tween-20 and 0.1 mg/ml BSA as a carrier. Binding data were collected at 25° C. […] The other data sets all fit well to a single site interaction model.
On the technique in general: In SPR one partner is held on a chip, and binding of the other changes the refractive index at the surface.

For assay [2], the target named is T2, PIN149 fully human Id protein (HV3-23 / KV4-1) (human).
T2 construct: patient tumour-derived idiotype immunoglobulin used as antigen; recombinant, two identical heavy and two identical light chains; also called Immunogen (for 3C9, 6C9, 10H7, 15E1); not shown: human immunoglobulin heavy chain constant region, isotype G3 (HCG3); human kappa light chain constant region (KC)
T2 sequence (VH, as listed by the source, chain 1 of 2): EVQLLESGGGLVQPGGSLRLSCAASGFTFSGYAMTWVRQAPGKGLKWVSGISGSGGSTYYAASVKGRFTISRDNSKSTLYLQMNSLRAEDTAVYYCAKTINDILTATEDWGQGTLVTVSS
T2 sequence (VL, as listed by the source, chain 2 of 2): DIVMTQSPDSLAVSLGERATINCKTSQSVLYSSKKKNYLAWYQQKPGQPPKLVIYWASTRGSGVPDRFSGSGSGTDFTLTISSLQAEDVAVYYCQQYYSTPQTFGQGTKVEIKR
The assay is described as follows: SPR (BIACORE 2000), mAb captured on anti-mouse surface, fully human Id protein as analyte. On the procedure: as §1, §2

Assay [3] has as its target T3, PIN185 fully human Id protein (human).
T3 construct: patient idiotype immunoglobulin used as control antigen
Put plainly: ELISA. The text has this: (§3) Before specificity screening, all of the clonal immunogen-positive hybridoma supernatants were re-screened on the immunogen, a non-family member Id protein, and KLH, if animals were immunized with Id protein that has been conjugated KLH. As described above, this screen identifies HC-specific clones but not mAbs against the light chain constant region. Clones identified positive to the immunogen and KLH were […]. Those found positive to the immunogen but not to the non-family member Id protein or KLH were tittered on the immunogen. In addition to normalizing for different binding affinities and concentrations, each hybridoma supernatant was titered on the fully human form of the Id protein used as the immunogen(s) for the V regions. The titer or dilution resulting in an ELISA absorbance of 2.5 to 3 OD after 30 min. incubation time was then used. Hybridoma specificity was determined by screening against available Id proteins expressing the same HV and KV or LV as well as different HV, KV and LV. The final ELISA results are expressed as follows: 0 (<0.5 OD),1 (0.5-1.0 OD), or 4 (1-4 OD). Positive hybridoma supernatants are categorized according to specificity: anti-Id, anti-constant region (HC, KC or LC), or V region (HV, KV, LV family or family member).
(§4) In general, the fully human Id protein or proteins containing the immunogen V regions were coated onto 96-well ELISA plates at 2.5-5 ug/mL in carbonate buffer pH 9.6 and incubated at 4° C. for up to 14 days. On the day of the ELISA, plates were brought to RT and blocked with Tris-Tween-20, pH 7.6 for 15-60 min. at RT. Following a NaCl and Triton X-100 wash, diluted hybridoma cell culture supernatants were incubated overnight at 4° C. Hybridoma supernatant dilutions ranged from 1:2 to 1:25 and were prepared in PBS with 5% BSA. Plates were washed and incubated with HRP-conjugated goat anti-mouse IgG-specific detecting antibody. A chromogenic substrate (TMB) was used to measure the amount of mouse antibody bound to each well. The reaction was stopped at or before 30 minutes with IN H2SO4 and plates were read immediately. Absorbency readings at 450 nm ranging between 0-4 OD and using Molecular Devices plate reader and SOFTMAX PRO software.
(In an ELISA, binding on a coated surface is turned into a signal by an enzyme label.)

A further assay has as its target T4, 628.
T4 construct: immunogen of fusions 20 and 21; also called PIN628; PIN628 fully human Id protein (HV3-7 / KV4-1)
Put plainly: ELISA.
Description: as §3, §4

A further assay concerns the target T5, 913.
T5 construct: also called PIN913; PIN913 fully human Id protein (HV4-59 / KV4-1)
Put plainly: ELISA.
Description: as §3, §4

For assay [4], the target named is T2, PIN149 fully human Id protein (HV3-23 / …). Put plainly: SPR (BIACORE 2000), mAb captured on anti-mouse surface, fully human Id protein as analyte, 25 C, single site model. Here is the method: as §1, §2
Assay [5] has the same target. The assay is described as follows: ELISA.
Description: as §3, §4

Assay [6] deals with T3, PIN185 fully human Id protein. The assay is described as follows: SPR (BIACORE 2000), mAb captured on anti-mouse surface, fully human Id protein as analyte, 25 C, single site model. On the procedure: as §1, §2
For a further assay, the target named is T6, 662.
T6 construct: also called PIN662; PIN662 fully human Id protein (HV3-48 / LV2-8)
T6 sequence (heavy, as listed by the source): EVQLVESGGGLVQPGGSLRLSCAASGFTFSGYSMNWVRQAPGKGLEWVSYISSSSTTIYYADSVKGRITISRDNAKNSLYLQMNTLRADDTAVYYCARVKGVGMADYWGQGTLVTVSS
The assay is described as follows: ELISA.
Description: as §3, §4

The target in another assay is T7, 116.
T7 construct: immunogen of fusions 15, 16 and 18; coated in its fully human form; also called PIN116; PIN116 fully human Id protein (HV1-46 / LV2-8)
T7 sequence (VH, as listed by the source, chain 1 of 2): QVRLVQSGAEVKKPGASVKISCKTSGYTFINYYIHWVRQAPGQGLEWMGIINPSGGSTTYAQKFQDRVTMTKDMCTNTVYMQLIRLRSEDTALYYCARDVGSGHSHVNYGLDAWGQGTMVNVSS
T7 sequence (V domain, as listed by the source, chain 2 of 2): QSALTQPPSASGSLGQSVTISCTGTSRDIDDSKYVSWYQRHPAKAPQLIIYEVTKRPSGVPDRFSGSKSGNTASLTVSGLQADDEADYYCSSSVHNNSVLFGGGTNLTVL
The assay is described as follows: ELISA.
Description: as §3, §4

Assay [7] deals with T1, PIN574 fully human Id protein (HV4-39 / …). Put plainly: ELISA.
Description: as §3, §4

The next assay deals with T8, 647.
T8 construct: immunogen of fusion 17; also called PIN647; PIN647 fully human Id protein (HV3-48 / LV2-14)
T8 sequence (VH, as listed by the source, chain 1 of 2): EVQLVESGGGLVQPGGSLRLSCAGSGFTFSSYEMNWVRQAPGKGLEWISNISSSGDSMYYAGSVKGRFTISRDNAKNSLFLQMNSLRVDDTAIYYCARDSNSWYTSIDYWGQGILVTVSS
T8 sequence (VL, as listed by the source, chain 2 of 2): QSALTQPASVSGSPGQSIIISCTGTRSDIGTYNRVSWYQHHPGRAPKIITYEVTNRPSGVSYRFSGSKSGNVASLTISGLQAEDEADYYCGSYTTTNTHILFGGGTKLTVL
The assay is described as follows: ELISA.
Description: as §3, §4

T1 sequence (VH, as listed by the source, chain 1 of 2): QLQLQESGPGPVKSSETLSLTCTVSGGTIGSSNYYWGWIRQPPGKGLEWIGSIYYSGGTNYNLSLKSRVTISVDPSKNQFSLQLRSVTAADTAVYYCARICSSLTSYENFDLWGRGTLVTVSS
T1 sequence (VL, as listed by the source, chain 2 of 2): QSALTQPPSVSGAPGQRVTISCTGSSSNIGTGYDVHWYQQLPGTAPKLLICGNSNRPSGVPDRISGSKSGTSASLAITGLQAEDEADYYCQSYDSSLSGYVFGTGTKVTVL
T5 sequence (heavy, as listed by the source): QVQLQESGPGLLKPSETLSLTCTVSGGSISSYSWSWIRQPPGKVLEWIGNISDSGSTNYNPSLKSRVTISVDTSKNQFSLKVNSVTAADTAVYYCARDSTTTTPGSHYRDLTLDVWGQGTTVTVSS
T4 sequence (VH, as listed by the source, chain 1 of 2): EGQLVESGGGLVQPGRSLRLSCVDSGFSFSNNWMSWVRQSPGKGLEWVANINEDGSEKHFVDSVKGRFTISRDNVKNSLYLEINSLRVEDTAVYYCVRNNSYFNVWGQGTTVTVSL
T4 sequence (VL, as listed by the source, chain 2 of 2): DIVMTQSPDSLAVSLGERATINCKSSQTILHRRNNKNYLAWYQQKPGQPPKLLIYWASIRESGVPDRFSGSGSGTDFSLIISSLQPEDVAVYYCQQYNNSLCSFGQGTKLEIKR

B1: mAb clone 20H5 (antibody, V domains shown)
VH: QVQLKESGPDLVAPSQSLSITCTVSGFSLTSYGVHWVRQPPGKGLEWLVVIWSDGSTTNNSPLKSRLSISKDNSKSQVFLKMNSLQTDDTAMYYCARHWGTTVVDAMDYWGQGTSVTVSS
VL: DIQMTQTTSSLSASLGDRVIISCRASQDIRNYLNWYQQKPDGTVKLLIYYTSQLHSGVPSRFSGSGSGTDYSLTINNLSEQEDIATYFCQQYDTLPWTFGGGTKLEIKR
notes: mouse hybridoma mAb from fusion 10 (immunogen fully human PIN574 Id protein)
In [1], B1 came in with a Kd of 1.92 nM, a koff of 0.000146 s⁻¹ and a kon of 75900 M⁻¹ s⁻¹. In addition, in [2], the binding result is given as “no binding”.

B2: mAb clone 12C3 (antibody, V domains shown)
VH: EVKLVESGGGLVQPGGSLSLSCAASGFTYTDYYMNWVRQPPGKALEWLALIRNKANGYTTEYSASLKGRFTISRDNSQSILYLQMNALRAEDSATYYCVRENINYYFDYWGQGTTLTVSS
VL: DIVLTQSPASLAVSLGQRATISCRASESVEYFGASLMQWYQQKSGQPPKLLIRAATNVESGVPARFSGSGSGTDFSLNIHPVEEDDIAMYFCQQSRKVPWTFGGGTKLEIKR
notes: mouse hybridoma mAb from fusions 20/21 (PIN628 V regions as immunogen)
On to B2, for which the ELISA score (in [3]; with 628; in the assay with 913) was 4 each time.

B3: mAb clone 3C9 (antibody, V domains shown)
VH: EVQLQQSGPELEKPGASVKISCKASGYSFTAYNMNWVKQNNGKSLEWIGNIDPYHGGTNYNQKFKGKATLTVDKSSSTAYMQLKSLTSEDYAVYYCARGGGDWSWFAYWGQGTLVTVSA
VL: DIVMTQSHKFMSTSVGDRVSITCKASQDVNTAVAWYQQKPGQSPKVLIYWASNRHTGVPDRFTGSGSGTDYTLTISSMQAEDLALYYCHQHYSTPWTFGGGTKLEIER
In assay [4], B3 came in with a Kd of 1.78 nM, a koff of 0.000134 s⁻¹ and a kon of 74900 M⁻¹ s⁻¹.

B4: mAb clone 10H7 (antibody, V domains shown)
VH: EVQLVESGGGLVKPGGSLKLSCTASGFTFSSYAMSWVRQSPEKRLEWVAEISSGGIHTYYSDTVTGRFSISRDNAKNSTLYLEMNSLRSEDTAIYYCARETTGTWGQGTLVTVSA
VL: QIVLTQSPAIMSASPGEKVTMTCSVSSSITYMHWFRQKPGTSPKLWIYTTSNLASGVPARFSGSGSGTSYSLTISRMEAEDAATYYCQQRSRYPFTFGSGTKLEIKR
notes: mouse hybridoma mAb from fusion 14 (immunogen PIN149 chimera-KLH)
For B4, the ELISA score (in assay [3]; with 628; in [5]; with 913) was 4 in each case. Besides, the Kd in [6] is 3 nM; in [4], 0.83 nM. For the same molecule, the koff in assay [6] came to 9.9e-05 s⁻¹; in assay [4], 3.8e-05 s⁻¹. The kon in [6] was determined as 33200 M⁻¹ s⁻¹; in assay [4] it was 45400 M⁻¹ s⁻¹.

B5: mAb clone 4H11 (antibody, V domains shown)
VH: EVKLVESGGGLVKPGGSLKLSCAASGFAFSNYDMSWVRQTPEKRLEWVATIRSDDSYTYYPDSVKGRFTISRDNARNTLYLQMSSLRSEDTAFYYCARREGNYAMDYWGQGTSVTVSS
VL: DIQMTQSPASLSVSVGETVTITCRASENIYSYLAWYQQKKGKSPQLLVYAATNLGDGVPTRFSGSGSGTQYSLKINSLQSEDFGSYYCQHFWGNPLTFGAGTKLELKR
notes: mouse hybridoma mAb
As for B5, the ELISA score (with 662; in [7]) was 4 in each case. For the same molecule, in the assay with 116, the binding result is listed as “no binding”.

B6: mAb clone 15E8 (antibody, V domains shown)
VH: QVQLQQPGAELVMPGASVKMSCKASGYTFTDYWMHWVKQRPGQGLEWIGTIDTSDSYTNYNQKFKGKATLTVDESSSTAYMQLSSLTSEDSAVYYCVRWKKYGNYFFDYWGQGTTLTVSS
VL: DIVMTQSHKFMSTSVGDRVSITCKASQDVNTAVAWYQQKPGQSPKLLIYWASTRHTGVPDRFTGSGSGTDFSLTISSVQAEDLGLYYCQQCYSTPYAFGGGTKLEIKR
notes: mouse hybridoma mAb from fusion 16 (immunogen unconjugated fully human PIN116)
For the molecule B6, the ELISA score with 662 and with 116 was 4 each time. For the same molecule, the binding result (in [7]; with 647) was “no binding” in each case.

As usually defined, the Kd is the free concentration of one partner at which half of the binding sites on the other are occupied at equilibrium, for simple one-to-one binding. The low end stands for a tighter complex, the high end for a looser complex. Broadly, the koff is a measure of how fast the partners let go of each other. Read a high koff as fast dissociation. The term kon denotes the second-order rate constant of association.
